Experimental findings from patent publication US20140286963A1 are described below.

Broadly, the Kd is the equilibrium constant for the complex coming apart. The koff is the rate constant with which the complex falls apart. Read a low koff as slow dissociation. The term kon denotes the rate constant with which the complex forms. A low value points to slower complex formation.

Assay [1] has as its target murine BACE1 ECD (amino acids 1-457) (murine) (UniProt P56818). In words: SPR (BIAcore-3000), second unlabelled row under Mouse, IgG captured by anti-human Fc antibody, pH 7.0. For orientation: In SPR one partner is held on a chip, and binding of the other changes the refractive index at the surface.
The target is the same in assay [2]. Briefly: SPR (BIAcore-3000), IgG captured by anti-human Fc antibody, BACE1 ECD injected, 25 C, pH 7.0.

Chain of murine BACE1 ECD (amino acids 1-457) (murine) (P56818 22-457 limits assumed, form in doubt): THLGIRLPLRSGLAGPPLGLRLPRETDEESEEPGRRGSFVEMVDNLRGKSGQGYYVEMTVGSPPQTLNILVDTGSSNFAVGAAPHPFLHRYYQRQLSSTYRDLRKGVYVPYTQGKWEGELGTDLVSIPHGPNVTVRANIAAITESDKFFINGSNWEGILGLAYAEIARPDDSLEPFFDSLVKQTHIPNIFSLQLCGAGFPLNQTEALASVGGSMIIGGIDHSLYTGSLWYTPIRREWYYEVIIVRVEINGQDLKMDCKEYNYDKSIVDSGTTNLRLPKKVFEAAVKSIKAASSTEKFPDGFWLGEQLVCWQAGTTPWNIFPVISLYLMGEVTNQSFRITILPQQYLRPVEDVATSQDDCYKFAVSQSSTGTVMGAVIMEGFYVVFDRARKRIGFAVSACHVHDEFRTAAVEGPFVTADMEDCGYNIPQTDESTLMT

B1: YW412.8.31 anti-BACE1 human IgG (antibody, V domains shown)
VH: EVQLVESGGGLVQPGGSLRLSCAASGFTFLGYGIHWVRQAPGKGLEWVGWISPAGGSTDYADSVKGRFTISADTSKNTAYLQMNSLRAEDTAVYYCARGPFSPWVMDYWGQGTLVTVSS
VL: DIQMTQSPSSLSASVGDRVTITCRASQDVSTAVAWYQQKPGKAPKLLIYSASFLYSGVPSRFSGSGSGTDFTLTISSLQPEDFATYYCQQFPTYLPTFGQGTKVEIK
For the molecule B1, in assay [1], the Kd stood at 1.4 nM, the koff was 0.000141 s⁻¹ and the kon is 101000 M⁻¹ s⁻¹. In assay [2], this molecule returned a Kd of 2.1 nM, a koff of 0.00029 s⁻¹ and a kon of 140000 M⁻¹ s⁻¹.
